Results on 35 sequences are retold here after a protein production outcome set (Wang et al. 2014).

This data set can be described thus: label from the status in PepcDB records.

Regarding “QIKIRKATKEDWEKIYQLYNSLSDEDLYLRFFHLYRITEEDAKKIASNEDHVTFLAEVDGKVVGEASLHKDGEFSLVVHRNYRTLGIGTLLVKTLIEEAKKSGLSTVKFYTLPENTPMIKIGRKLGFKMRFYEDEVYGEMRL”, the protein production result was “not failed”.

With “QKQYWVCNSSDASISYTYCDKMQYPISINVNPCIELKGSKGLLHIFYIPRRDLKQLYFNLYITVNTMNLPKRKEVICRGSDDDYSFCRALKGETVNTTISFSFKGIKFSKGKYKCVVEAISGSPEEMLFCLEFVILHQPNSN”, the protein production result is “failed”. As to “QKVKTIFPHTAGNNKTLLSFAQGDVLTLLIPEEKDGWLYGEHDTTKARGWFPSSYTKLL”, the protein production result is listed as “not failed”. As to “QKYQALLANNVENTAKEALHQLAYTGREYNNIQDQIETISDLLGHSQSLYDYLREPSKANLTILENMWSSVARNQKLYKQIRFLDTSGTEKVRIKYDFKTSIAGPSLILRDKSAREYFKYAQSLDNEQISAWGIELERDKGELVYPLSPSLRILMPISVNDVRQGYLVLNVDIEYLSSLLNYSPVRDFHIELVKHKGFYIASPDESRLYGDIIPERSQFNFSNMYPDIWPRVVSEQAGYSYSGEHLIAFSSIKFVSNEPLHLIIDLSNEQLSKRATRDINDLIQES”, the protein production result is listed as “not failed”. Under “QLLEPIRDFEARKCPVHGKTMELFCQTDQTCICYLCMFQEHKNHSTVTVEEAKAEKETE” stands “not failed”. As to “QLSSVTDSKKKKTILDQIFVWEQNLEQFQMDLFRFRCYLASLQGGELPNPKRLLAFASRPTKVAMGRLGIFSVSSFHALVAARTGETGVRRRTQAM”, the protein production result is on record as “failed”. On to “QNYWAVFDANKETLIVQTCSGLGLTAIDHLYPPHILPLDTDNETLGTTVLQALANSRTFVYDSPEDQDFFDTEKIRQRYEDWVAKLCGNLGYKTRRALFKNMMSVDIWLHNGCLKISPSRHVKLEAWNAIDADDVILSLDNSPEEIGAGLKLALSHC”, for which the protein production result was “failed”.

For “QPTIVLDTDYNIIAANTAYQRQFGVAGKPHVGAKCYRVSHQFAVPCDQAGEHCPMRKAHDSRVPERMLHIHHTPRGPEHVDVELRPIIGQDGTVVAYVERLSSVAVASVQPQQKG”, the protein production entry is “failed”.

In the case of “QQMETGDQRFGDLVFRQLAPNVWQHTSYLDMPGFGAVASNGLIVRDGGRVLVVDTAWTDDQTAQILNWIKQEINLPVALAVVTHAHQDKMGGMDALHAAGIATYANALSNQLAPQEGMVAAQHSLTFAANGWVEPATAPNFGPLKVFYPGPGHTSDNITVGIDGTDIAFGGCLIKDSKAKSLGNLGDADTEHYAASARAFGAAFPKASMIVMSHSAPDSRAAITHTARMADKLR”, the protein production entry was “not failed”. Under “QQVTEPEETKETLQHLLDDTASGKMVQLTFVGESAEQPLITEMIRNFNVSVNILQGKISQTKDGAYGSLFIHIDGDEEEVQNVIRFINDKQVKAEVITNV” stands “not failed”; under “QVPKKQTTSKILVRNIPFQANQREIRELFSTFGELKTVRLPKKMTGTGAHRGFGFVDFITKQDAKKAFNALCHSTHLYGRRLVLEWADSEVTVQ”, “not failed”. On to “QWDITLIGHEDDLSQLSHEKLSKLAACIEYSPYPMVEIDYFGNLTYLNTATKEKFPSIQKDSMAHPLLKDIIPQREDTPIYYLRTREVQIGDKFYEQHIHYPAESQFIRSYIFDITERKVIEQSIHYQAFYDPLTDLPNRFLFKQELGKVLSNVQNQSSVLGLVLLGFRELQSLNDLLG”, for which the protein production result was “failed”. In the case of “QYMSYDRNAFGNQVMGQFGNASGSVTSNKIFGFRSDILLQLLNMKISKDHQELNQNQVIQLVPTYLQQLYNEMNNGDPTMYKDLLNLHSNIVHPSGMYMNPLLYANQNPNAAGYNQGTGGVPPMAGGSVAHGPPAAPAP”, the protein production result is “failed”.

As to “RAELRGVVRVAASEVVGAEVLPPLVARLRQACPNIVIELMLSNRFQDLLHREADIAVRMVAPQQEQLIARRLGRIELGLHATAAYLTRQGLPATLDDLASHALIGFDSATPLVRRALQAYPRFQREAFAMRTDSDLAQLSLIRAGA”, the protein production entry is recorded as “failed”. Take “RALRRRGGDAAAKLAGLVLIAPAPDFTEALMWKGFSPEIRAEIETKGVWHRPSEYGEPYPITKALIEDGRNHLVLDGMIEVGCPVRILQGKQDEDVPWRHAFELAERLPTDDVVLTMIQDGDHRLSRPQDIARMLAAVEE”: the protein production result is recorded as “failed”. As for “RAVAGWGARPSAAPARRRARSLGVPYIALEDGFLRSFGTGRHFPPLSLVVDRLGIYYDATRESELECLLASSRTLLDGIEDAVPEAMELVRERRLSKYNQGCFLATGVPADGRRRVLVVDQTEGDMSVTLGCAEAATFEAMLAAARAESPGALICVKTHPEVAAGDKSGYLSRVTDDADTVALRHDMNPLALLEQMDRVYVVSSQMGFEALMLDKPVTCFGMPWYAGWGVTDDRQRCERRGRARSVEELFAGAYFHYTRYLDPVLH”, the protein production entry is on record as “failed”. Under “RDVAFTADGTTAYGTLHVPEHRAGQRLRAALLLPGSGPTDRDGNQPPASLPDTLAQLADTLGKDGVATLRFDKYGTGRTGLGTYQDRPEELDYPAFVRQARAGYESLRDQPETDPHALLVVGHSEGAMTGLLLGGTVSPRPAGLALLQPQAIRMLDLVALQLRAQIAEATRQGQFTPEQQRTVNAAVDAAVTALRERRPVDTADLPSPIARLFEAFQGPNARFVRSDDAVYPPDTAFALRPGTKVLLTCGTHDVQVPCDTTNVLTTALRHAHAHGPGRVVLPGVDHLMHDTDHPATLTPPVLDSL” stands “failed”; under “REIADNTYIVLGTMTLNDFNEYFETDLESDNVDTIAGFYLTGVGTIPSQEEKEHFEVESNGKHLELINDKVKDGRVTKLKILVSE”, “not failed”. For “RETYPDAVKICNICHSLLIQGQSCETCGIRMHLPCVAKYFQSNAEPRCPHCNDYWPHEIPK”, the protein production entry is “not failed”. Take “RFLEDMTIGERREVGTFTFTADAIKTFAAQFDPQPFHLDEEAGKNSLFGGLAASGWHVAAVCMKLMVADAQRESAEAAKRGELVATGGPSPGFRELRWLKPVLAGDTITYYKQVESLRPSDSRPQWGIMQARNTGINQRGEVVFSFLATAFVPRRPNA”: the protein production result is “failed”. Under “RFNPFIHQQDVYVQIDRDGRHLSPGGTEYTLDGYNASGKKEEVTFFAGKELRKNAYLKVKAKGKYVETWEEVKFEDMPDSVQSKLK” stands “not failed”.

Turning to “RHQPEINQTPGEAQALFVWRDNQDHRDDIERHYLKMLTSARREVIIANAYFFPGYRLLHAMRNAARRGVRVKLIVQGEPDIPIVKFGAHLLYHYLVKGGVQIYEYRRRPLHGKVALADDHWATVGSSNLDPLSLSLNLEANLIIHDRVFNQTLRDNLNGLIARDCQRIDKTMLPKRNWWRLGVSVMAFHFLRHFPAWVGWLP”, the protein production result is “failed”. Consider “RIGDGSPSHPPILERTLDDVPGPPMGILFPEVRTTSVRLIWQPPAAPNGIILAYQITHRLNTTTANTATVEVLAPSARQYTATGLKPESVYLFRITAQTRKGWGEAAEALVVTTEKR”, for which the protein production entry is “not failed”. Consider “RIKPGPNGRALLFIHGTFSTTDGSFGDLASAEFFGELARTYGNAIYGFDHYSVSVTPEKNASDILKTLPSGGIDCDVVTHSRGGLVLRTLNERQGDLSQGKRFRLQRAALVACPNEGTQLATPDRWQGTLGWLANLLDLFPPNPITSNAALVMHWVTWFAKVGVAAAEG”, for which the protein production entry was “failed”. Turning to “RIPDIEEVELAEAPADKVLPDGFYVTTNHPTFVRYGGEWLPVEDISMDRVIVIRDGRAYCIPIDEVVRGDRVVVGEKGVRVVPPERPRKSTVFEFMGGRVSSERPTERMIEAIAREIYELKLKGGKIAVVAGPAVDHTSARNALAALIRDGYVDLLLSGNALAVHDIEISIFGTSLGMDICKGRPVPGGNRHHLYTISKVIAAGGIKKAIEKGIIKDGIMYECVKNNVPFILAGSIRDDGPLPEVITDVMVAKKKMKEALRGINMVIMLATMLHSIAVGNLLPSYVKTICVDMNPSTVTKLMDRGTHQAIGVVTDVGLFLPLLYLKIKE”, the protein production entry is “failed”. With “RIVGELEQMVSEDVPLDHRVHARIIGARGKAIRKIMDEFKVDIRFPQSGAPDPNCVTVTGLPENVEEAIDHILNLEEEYLAD”, the protein production result is given as “not failed”. As to “RLAHVSAASRELARALEPDAVMAVLAGILRERLGFYRVTVALVREGALVGHLTRRGEDLYWTEGRSRIRLPVATSPDPMAQAVRERRTRIVPREALPPHLAEGVGASVAYVPVLVEEEALGCVAVDHGPGGPPVTEEEVEYVELLAGVAGVALRNAQLYRERTALSLALAAERKRLS”, the protein production entry was “failed”. The result for “RLKLLYDAGLGIGTTLDVLRTADELAQVAVPRFADFVTVDLADAVLHGEEPAPTATDLRRTAVCGIRDDHPLYELGQLIDFLPSTPQARGYGSGYSELVTDLSTATGWHAQDPERTKAIIDYGIHSLIAAPIQARGVVLGMANFWRSKQHEPFVEEEMSLAEELVARAAVSIDNARRYTREHALAVTLQRSL” reads “not failed”; that for “RLNFLDTLGRAVTEATDPDQIMAITTRMLVEHLGLSSCAYAVMDPDEDGFTICGDAVTPGSPRLVGHYHLHDFGRLAVSRLRSGLALVINDNLRELAADEAATYQAIGITATICMPLIKGGRLTALMAIHDRVPRAWTDYEQTLISEVTERCWAHIQRAQAHAEVREAMAALEALNTTLE”, “failed”. Under “RLQPIIVPGWQGSGPGHWQTHWSRTLPHAVRLQQRDWHQPQRAEWVAALAAAVDAAPTPVLLVAHSLGCLVSAALPIALRAKVAGALLVAPADVERPGAPAAIAAFGPVPRQSLPYQSVVIASDDDPYCRLERARQFAQDWGSRLVVLQGAGHINADSQLGAWPQGLKQLAALRRRACW” stands “failed”; under “RLRQPMLRTGDQWQPIEWQAAFDLVAERLYAIQQQHGQNAVAVYQGNPSVHNYGLMTHSNYFLGLLKTRNRFSATSVDQLPHHLTSFLMYGHGMLLPIPDIDHTDFMLILGGNPLASNGSIMTVPDVEKRLKAIQQRGGKLVVVDPRRSETAAIADQHVFVRPGGDAALLFGLLNTLFEEGLTRESHLPVDGLDHVRHSIAGFSAEAMSPRCGIAAVQIRQLARDFAGADTALCYGRMGVSTQAFGTLCHWLAQLINLVTGNLDRVGGTLCTEPAVDLVSSTSGGHFNVWQSRVSGLPEYGGELPVSALAEEMLVEGQGQVRALVTVAGNPVLSTPNGRQLDQALEGLEFMLSIDLYINETTRHADLILPSTSALENDHYDTTFNTLAVRNVTRFNRAIFDKPEGALHDWEIFVGLAASFAAKAQRELKPTVPPAQMIDRVLRAGRYGAASPHNLSLETLASHPHGMDLGALKPNLTDRLKTANGRIQAAP”, “failed”.

In the case of “RNFLNNQQIRAQVHRRILEQLPTEGEIVLLGHSLGSVIAADLLRRLPPELTVKGFVTIGSPLANGQFNVDDLFKLLRTPLSNVSWWVNFWSGS”, the protein production entry is on record as “failed”. The result for “RNTNPGIKCFAVRSLGWVEMTEEELAPGRSSVAVNNCIRQLSYHKNNLHDPMSGGWGEG” reads “failed”. The result for “RPSWGYARSMAGRLAGATAVLDVQTGGGEVLDFALEAAGPHRAPLVAATEGWAPNVAQATRLLRPRGVPVVASADDAPLPFADGAFDLVVSRHPVEPHWDEVARVLMPGGTYFAQHVGPASVFELIEYFLGPLPEDSRRHRDPERERADAEAAGLEVVELRAERLRMEFLDIGAVVHFLRKVVWMVPGFTVEAYRDRLRDLHERIEADGPFVAHSSRHLFDVRKP” reads “failed”. Under “RQRSLSTSGESLYHVLGLDKNATSDDIKKSYRKLALKYHPDKNPDNPEAADKFKEINNAHAILTDATKRNIYDKYGSLGLYVAEQFGEENVNTYFV” stands “not failed”.
